Reference: patent US20240117018A1

Columns and labels:
Test in all cases: cell-based or functional assay
[1] = target: HIV-1 Env of pseudovirus R2184.c04 (HIV-1)
[2] = target: HIV-1 Env of pseudovirus 620345.c01 (HIV-1)
[3] = target: HIV-1 Env of pseudovirus 9004SS_A3_4 (HIV-1)
[4] = target: HIV-1 Env of pseudovirus 928-28 (HIV-1)
[5] = target: HIV-1 Env of pseudovirus 3016.v5.c45 (HIV-1)
[6] = target: HIV-1 Env of pseudovirus 231966.c02 (HIV-1)
[7] = target: HIV-1 Env of pseudovirus C3347.c11 (HIV-1)
[8] = target: HIV-1 Env of pseudovirus 6041.v3.c23 (HIV-1)
[9] = target: HIV-1 Env of pseudovirus 263-8 (HIV-1)
[10] = target: HIV-1 Env of pseudovirus T255-34 (HIV-1)
[11] = target: HIV-1 Env of pseudovirus R1166.c01 (HIV-1)
[12] = target: HIV-1 Env of pseudovirus 211-9 (HIV-1)
[13] = target: HIV-1 Env of pseudovirus 6480.v4.c25 (HIV-1)
[14] = target: HIV-1 Env of pseudovirus P1981_C5_3 (HIV-1)
[15] = target: HIV-1 Env of pseudovirus X1254_c3 (HIV-1)
[16] = target: HIV-1 Env of pseudovirus 191084 B7-19 (HIV-1)
[17] = target: HIV-1 Env of pseudovirus BJOX025000.01.1 (HIV-1)
[18] = target: HIV-1 Env of pseudovirus T278-50 (HIV-1)
[19] = target: HIV-1 Env of pseudovirus 6545.v4.c1 (HIV-1)
[20] = target: HIV-1 Env of pseudovirus 6952.v1.c20 (HIV-1)
[21] = target: HIV-1 Env of pseudovirus C4118.c09 (HIV-1)
[22] = target: HIV-1 Env of pseudovirus T257-31 (HIV-1)
[23] = target: HIV-1 Env of pseudovirus 0815.v3.c3 (HIV-1)
[24] = target: HIV-1 Env of pseudovirus BJOX009000.02.4 (HIV-1)
[25] = target: HIV-1 Env of pseudovirus BJOX015000.11.5 (HIV-1)
[26] = target: HIV-1 Env of pseudovirus 3103.v3.c10 (HIV-1)
[27] = target: HIV-1 Env of pseudovirus 3301.v1.c24 (HIV-1)
[28] = target: HIV-1 Env of pseudovirus A07412M1.vrc12 (HIV-1)
[29] = target: HIV-1 Env of pseudovirus P0402_c2_11 (HIV-1)
[30] = target: HIV-1 Env of pseudovirus 191955_A11 (HIV-1)
[31] = target: HIV-1 Env of pseudovirus 235-47 (HIV-1)
[32] = target: HIV-1 Env of pseudovirus 231965.c01 (HIV-1)
[33] = target: HIV-1 Env of pseudovirus X2131_C1_B5 (HIV-1)
[34] = target: HIV-1 Env of pseudovirus 6540.v4.c1 (HIV-1)
[35] = target: HIV-1 Env of pseudovirus R3265.c06 (HIV-1)
[36] = target: HIV-1 Env of pseudovirus BJOX028000.10.3 (HIV-1)

PGDM1400 (antibody)
IC50 (Titer in TZM.bl cells) [1]: 0.003 µg/mL
IC80 (Titer in TZM.bl cells) [1]: 0.012 µg/mL
IC50 (Titer in TZM.bl cells) [2]: 9 ng/mL
IC80 (Titer in TZM.bl cells) [2]: 40.3 µg/mL
neutralization IC50 [3]: < 1 ng/mL
neutralization IC80 [3]: 2 ng/mL
neutralization IC50 [4]: 0.22 µg/mL
neutralization IC80 [4]: 1.25 µg/mL
IC50 (Titer in TZM.bl cells) [5]: > 50 µg/mL
IC80 (Titer in TZM.bl cells) [5]: > 50 µg/mL
IC50 (Titer in TZM.bl cells) [6]: 0.001 µg/mL
IC80 (Titer in TZM.bl cells) [6]: 4 ng/mL
IC50 (Titer in TZM.bl cells) [7]: 11 ng/mL
IC80 (Titer in TZM.bl cells) [7]: 0.051 µg/mL
IC50 (Titer in TZM.bl cells) [8]: 0.013 µg/mL
IC80 (Titer in TZM.bl cells) [8]: 0.289 µg/mL
neutralization IC50 [9]: 0.02 µg/mL
neutralization IC80 [9]: 0.103 µg/mL
IC50 (Titer in TZM.bl cells) [10]: 0.654 µg/mL
IC80 (Titer in TZM.bl cells) [10]: > 50 µg/mL
IC50 (Titer in TZM.bl cells) [11]: 1.43 µg/mL
IC80 (Titer in TZM.bl cells) [11]: 6.92 µg/mL
IC50 (Titer in TZM.bl cells) [12]: 0.088 µg/mL
IC80 (Titer in TZM.bl cells) [12]: 0.393 µg/mL
IC50 (Titer in TZM.bl cells) [13]: > 50000 ng/mL
IC80 (Titer in TZM.bl cells) [13]: > 50 µg/mL
IC50 (Titer in TZM.bl cells) [14]: 0.104 µg/mL
IC80 (Titer in TZM.bl cells) [14]: 4.6 µg/mL
IC50 (Titer in TZM.bl cells) [15]: > 50 µg/mL
IC80 (Titer in TZM.bl cells) [15]: > 50 µg/mL
neutralization IC50 [16]: < 0.001 µg/mL
neutralization IC80 [16]: 0.007 µg/mL
IC50 (Titer in TZM.bl cells) [17]: 0.087 µg/mL
IC80 (Titer in TZM.bl cells) [17]: 0.573 µg/mL
IC50 (Titer in TZM.bl cells) [18]: 0.574 µg/mL
IC80 (Titer in TZM.bl cells) [18]: 4.94 µg/mL
IC50 (Titer in TZM.bl cells) [19]: 3 ng/mL
IC80 (Titer in TZM.bl cells) [19]: 0.039 µg/mL
IC50 (Titer in TZM.bl cells) [20]: 0.501 µg/mL
IC80 (Titer in TZM.bl cells) [20]: 11.8 µg/mL
IC50 (Titer in TZM.bl cells) [21]: 2 ng/mL
IC80 (Titer in TZM.bl cells) [21]: 5 ng/mL
neutralization IC50 [22]: 2 ng/mL
neutralization IC80 [22]: 0.031 µg/mL
IC50 (Titer in TZM.bl cells) [23]: > 50 µg/mL
IC80 (Titer in TZM.bl cells) [23]: > 50 µg/mL
IC50 (Titer in TZM.bl cells) [24]: 0.443 µg/mL
IC80 (Titer in TZM.bl cells) [24]: 1.29 µg/mL
IC50 (Titer in TZM.bl cells) [25]: 0.52 µg/mL
IC80 (Titer in TZM.bl cells) [25]: 10.6 µg/mL
IC50 (Titer in TZM.bl cells) [26]: 0.671 µg/mL
IC80 (Titer in TZM.bl cells) [26]: 2 µg/mL
IC50 (Titer in TZM.bl cells) [27]: 0.048 µg/mL
IC80 (Titer in TZM.bl cells) [27]: 0.245 µg/mL
IC50 (Titer in TZM.bl cells) [28]: 0.032 µg/mL
IC80 (Titer in TZM.bl cells) [28]: 0.127 µg/mL
IC50 (Titer in TZM.bl cells) [29]: 10 ng/mL
IC80 (Titer in TZM.bl cells) [29]: 0.033 µg/mL
neutralization IC50 [30]: 0.001 µg/mL
neutralization IC80 [30]: 0.021 µg/mL
IC50 (Titer in TZM.bl cells) [31]: 5 ng/mL
IC80 (Titer in TZM.bl cells) [31]: 0.032 µg/mL
IC50 (Titer in TZM.bl cells) [32]: 0.025 µg/mL
IC80 (Titer in TZM.bl cells) [32]: 1.28 µg/mL
IC50 (Titer in TZM.bl cells) [33]: 0.128 µg/mL
IC80 (Titer in TZM.bl cells) [33]: 0.568 µg/mL
IC50 (Titer in TZM.bl cells) [34]: 0.004 µg/mL
IC80 (Titer in TZM.bl cells) [34]: 0.028 µg/mL
IC50 (Titer in TZM.bl cells) [35]: 0.013 µg/mL
IC80 (Titer in TZM.bl cells) [35]: 0.041 µg/mL
IC50 (Titer in TZM.bl cells) [36]: 0.072 µg/mL
IC80 (Titer in TZM.bl cells) [36]: 0.963 µg/mL

PGT128 (antibody)
IC50 (Titer in TZM.bl cells) [1]: 20.1 µg/mL
IC80 (Titer in TZM.bl cells) [1]: > 50 µg/mL
IC50 (Titer in TZM.bl cells) [2]: > 50000 ng/mL
IC80 (Titer in TZM.bl cells) [2]: > 50 µg/mL
neutralization IC50 [3]: 2 ng/mL
neutralization IC80 [3]: 10 ng/mL
neutralization IC50 [4]: > 50 µg/mL
neutralization IC80 [4]: > 50 µg/mL
IC50 (Titer in TZM.bl cells) [5]: > 50 µg/mL
IC80 (Titer in TZM.bl cells) [5]: > 50 µg/mL
IC50 (Titer in TZM.bl cells) [6]: 3.2 µg/mL
IC80 (Titer in TZM.bl cells) [6]: > 50000 ng/mL
IC50 (Titer in TZM.bl cells) [7]: 1 ng/mL
IC80 (Titer in TZM.bl cells) [7]: 0.007 µg/mL
IC50 (Titer in TZM.bl cells) [8]: > 50 µg/mL
IC80 (Titer in TZM.bl cells) [8]: > 50 µg/mL
neutralization IC50 [9]: 0.342 µg/mL
neutralization IC80 [9]: 3.3 µg/mL
IC50 (Titer in TZM.bl cells) [10]: > 50 µg/mL
IC80 (Titer in TZM.bl cells) [10]: > 50 µg/mL
IC50 (Titer in TZM.bl cells) [11]: > 50 µg/mL
IC80 (Titer in TZM.bl cells) [11]: > 50 µg/mL
IC50 (Titer in TZM.bl cells) [12]: 0.062 µg/mL
IC80 (Titer in TZM.bl cells) [12]: 0.215 µg/mL
IC50 (Titer in TZM.bl cells) [13]: 3 ng/mL
IC80 (Titer in TZM.bl cells) [13]: 0.019 µg/mL
IC50 (Titer in TZM.bl cells) [14]: 0.019 µg/mL
IC80 (Titer in TZM.bl cells) [14]: 0.088 µg/mL
IC50 (Titer in TZM.bl cells) [15]: > 50 µg/mL
IC80 (Titer in TZM.bl cells) [15]: > 50 µg/mL
neutralization IC50 [16]: 0.022 µg/mL
neutralization IC80 [16]: 0.152 µg/mL
IC50 (Titer in TZM.bl cells) [17]: > 50 µg/mL
IC80 (Titer in TZM.bl cells) [17]: > 50 µg/mL
IC50 (Titer in TZM.bl cells) [18]: 0.031 µg/mL
IC80 (Titer in TZM.bl cells) [18]: 0.089 µg/mL
IC50 (Titer in TZM.bl cells) [19]: > 50000 ng/mL
IC80 (Titer in TZM.bl cells) [19]: > 50 µg/mL
IC50 (Titer in TZM.bl cells) [20]: > 50 µg/mL
IC80 (Titer in TZM.bl cells) [20]: > 50 µg/mL
IC50 (Titer in TZM.bl cells) [21]: > 50000 ng/mL
IC80 (Titer in TZM.bl cells) [21]: > 50000 ng/mL
neutralization IC50 [22]: > 50000 ng/mL
neutralization IC80 [22]: > 50 µg/mL
IC50 (Titer in TZM.bl cells) [23]: 0.03 µg/mL
IC80 (Titer in TZM.bl cells) [23]: 0.137 µg/mL
IC50 (Titer in TZM.bl cells) [24]: < 0.001 µg/mL
IC80 (Titer in TZM.bl cells) [24]: 0.005 µg/mL
IC50 (Titer in TZM.bl cells) [25]: 0.001 µg/mL
IC80 (Titer in TZM.bl cells) [25]: 0.011 µg/mL
IC50 (Titer in TZM.bl cells) [26]: 0.014 µg/mL
IC80 (Titer in TZM.bl cells) [26]: 0.033 µg/mL
IC50 (Titer in TZM.bl cells) [27]: 0.067 µg/mL
IC80 (Titer in TZM.bl cells) [27]: 0.499 µg/mL
IC50 (Titer in TZM.bl cells) [28]: > 50 µg/mL
IC80 (Titer in TZM.bl cells) [28]: > 50 µg/mL
IC50 (Titer in TZM.bl cells) [29]: 7 ng/mL
IC80 (Titer in TZM.bl cells) [29]: 0.02 µg/mL
neutralization IC50 [30]: 14.2 µg/mL
neutralization IC80 [30]: > 50 µg/mL
IC50 (Titer in TZM.bl cells) [31]: > 50000 ng/mL
IC80 (Titer in TZM.bl cells) [31]: > 50 µg/mL
IC50 (Titer in TZM.bl cells) [32]: > 50 µg/mL
IC80 (Titer in TZM.bl cells) [32]: > 50 µg/mL
IC50 (Titer in TZM.bl cells) [33]: > 50 µg/mL
IC80 (Titer in TZM.bl cells) [33]: > 50 µg/mL
IC50 (Titer in TZM.bl cells) [34]: 11.8 µg/mL
IC80 (Titer in TZM.bl cells) [34]: > 50 µg/mL
IC50 (Titer in TZM.bl cells) [35]: > 50 µg/mL
IC80 (Titer in TZM.bl cells) [35]: > 50 µg/mL
IC50 (Titer in TZM.bl cells) [36]: 0.024 µg/mL
IC80 (Titer in TZM.bl cells) [36]: 0.07 µg/mL
